B1: MOR021454 (antibody, V domains shown)
VH: QVQLVESGGGLVKPGGSLRLSCAASGFTFSSYALSWVRQAPGKGLEWVGRIRHYKWGGTTEYAAPVKGRFTISRDDSKNTLYLQMNSLKTEDTAVYYCARDFWADHYYYFDYWGQGTLVTVSS
VL: DIALTQPASVSGSPGQSITISCTGTSSDVGYINYVNWYQQHPGKAPKLMIYEVSNRPSGVSNRFSGSKSGNTASLTISGLQAEDEADYYCASWDWYDNVVFGGGTKLTVLG
notes: IgG (human IgG1f LALA); parent MOR20151 with the printed HCDR2 stretch exchanged
B2: MOR021457 (antibody, V domains shown)
VH: QVQLVESGGGLVKPGGSLRLSCAASGFTFSSYALSWVRQAPGKGLEWVGRTRMWTVGYTTHYAASVKGRFTISRDDSKNTLYLQMNSLKTEDTAVYYCARDFWADHYYYFDYWGQGTLVTVSS
VL: DIALTQPASVSGSPGQSITISCTGTSSDVGYINYVNWYQQHPGKAPKLMIYEVSNRPSGVSNRFSGSKSGNTASLTISGLQAEDEADYYCASWDWYDNVVFGGGTKLTVLG
notes: as for B1
B3: MOR021456 (antibody, V domains shown)
VH: QVQLVESGGGLVKPGGSLRLSCAASGFTFSSYALSWVRQAPGKGLEWVGRIRYWPDGYTTHYAASVKGRFTISRDDSKNTLYLQMNSLKTEDTAVYYCARDFWADHYYYFDYWGQGTLVTVSS
VL: DIALTQPASVSGSPGQSITISCTGTSSDVGYINYVNWYQQHPGKAPKLMIYEVSNRPSGVSNRFSGSKSGNTASLTISGLQAEDEADYYCASWDWYDNVVFGGGTKLTVLG
notes: as for B1
B4: MOR021458 (antibody, V domains shown)
VH: QVQLLESGGGLVQPGGSLRLSCAASGFTFSDYALHWVRQAPGKGLEWVSSISYVGGFIYYADSVKGRFTISRDNSKNTLYLQMNSLRAEDTAVYYCARSPGLTSYHDSWGQGTLVTVSS
VL: DIVLTQPPSVSGAPGQRVTISCSGSSSNIGSNYVSWYQQLPGTAPKLLIHSNSHRPSGVPDRFSGSKSGTSASLAITGLQAEDEADYYCQSWDYESERVVFGGGTKLTVLG
notes: IgG (human IgG1f LALA); parent MOR20144 with the printed HCDR2 stretch exchanged
B5: MOR021467 (antibody, V domains shown)
VH: QVQLLESGGGLVQPGGSLRLSCAASGFTFSDYALHWVRQAPGKGLEWVSVISYQGGFTFYADSVKGRFTISRDNSKNTLYLQMNSLRAEDTAVYYCARSPGLTSYHDSWGQGTLVTVSS
VL: DIVLTQPPSVSGAPGQRVTISCSGSSSNIGSNYVSWYQQLPGTAPKLLIHSNSHRPSGVPDRFSGSKSGTSASLAITGLQAEDEADYYCQSWDYESERVVFGGGTKLTVLG
notes: as for B4
B6: MOR021470 (antibody, V domains shown)
VH: QVQLLESGGGLVQPGGSLRLSCAASGFTFSDYALHWVRQAPGKGLEWVSVISYAGAFTYYADSVKGRFTISRDNSKNTLYLQMNSLRAEDTAVYYCARSPGLTSYHDSWGQGTLVTVSS
VL: DIVLTQPPSVSGAPGQRVTISCSGSSSNIGSNYVSWYQQLPGTAPKLLIHSNSHRPSGVPDRFSGSKSGTSASLAITGLQAEDEADYYCQSWDYESERVVFGGGTKLTVLG
notes: as for B4
B7: MOR021459 (antibody, V domains shown)
VH: QVQLLESGGGLVQPGGSLRLSCAASGFTFSDYALHWVRQAPGKGLEWVSVISYVGGFKFYADSVKGRFTISRDNSKNTLYLQMNSLRAEDTAVYYCARSPGLTSYHDSWGQGTLVTVSS
VL: DIVLTQPPSVSGAPGQRVTISCSGSSSNIGSNYVSWYQQLPGTAPKLLIHSNSHRPSGVPDRFSGSKSGTSASLAITGLQAEDEADYYCQSWDYESERVVFGGGTKLTVLG
notes: as for B4
B8: MOR021461 (antibody, V domains shown)
VH: QVQLLESGGGLVQPGGSLRLSCAASGFTFSDYALHWVRQAPGKGLEWVSVISYAGGFTYYADSVKGRFTISRDNSKNTLYLQMNSLRAEDTAVYYCARSPGLTSYHDSWGQGTLVTVSS
VL: DIVLTQPPSVSGAPGQRVTISCSGSSSNIGSNYVSWYQQLPGTAPKLLIHSNSHRPSGVPDRFSGSKSGTSASLAITGLQAEDEADYYCQSWDYESERVVFGGGTKLTVLG
notes: as for B4
B9: MOR021463 (antibody, V domains shown)
VH: QVQLLESGGGLVQPGGSLRLSCAASGFTFSDYALHWVRQAPGKGLEWVSVISYMGGFKYYADSVKGRFTISRDNSKNTLYLQMNSLRAEDTAVYYCARSPGLTSYHDSWGQGTLVTVSS
VL: DIVLTQPPSVSGAPGQRVTISCSGSSSNIGSNYVSWYQQLPGTAPKLLIHSNSHRPSGVPDRFSGSKSGTSASLAITGLQAEDEADYYCQSWDYESERVVFGGGTKLTVLG
notes: as for B4
B10: MOR021466 (antibody, V domains shown)
VH: QVQLLESGGGLVQPGGSLRLSCAASGFTFSDYALHWVRQAPGKGLEWVSVISYMGGFKFYADSVKGRFTISRDNSKNTLYLQMNSLRAEDTAVYYCARSPGLTSYHDSWGQGTLVTVSS
VL: DIVLTQPPSVSGAPGQRVTISCSGSSSNIGSNYVSWYQQLPGTAPKLLIHSNSHRPSGVPDRFSGSKSGTSASLAITGLQAEDEADYYCQSWDYESERVVFGGGTKLTVLG
notes: as for B4
B11: MOR021469 (antibody, V domains shown)
VH: QVQLLESGGGLVQPGGSLRLSCAASGFTFSDYALHWVRQAPGKGLEWVSAISYQGGFIFYADSVKGRFTISRDNSKNTLYLQMNSLRAEDTAVYYCARSPGLTSYHDSWGQGTLVTVSS
VL: DIVLTQPPSVSGAPGQRVTISCSGSSSNIGSNYVSWYQQLPGTAPKLLIHSNSHRPSGVPDRFSGSKSGTSASLAITGLQAEDEADYYCQSWDYESERVVFGGGTKLTVLG
notes: as for B4
B12: MOR021465 (antibody, V domains shown)
VH: QVQLLESGGGLVQPGGSLRLSCAASGFTFSDYALHWVRQAPGKGLEWVSVISYQGAFIYYADSVKGRFTISRDNSKNTLYLQMNSLRAEDTAVYYCARSPGLTSYHDSWGQGTLVTVSS
VL: DIVLTQPPSVSGAPGQRVTISCSGSSSNIGSNYVSWYQQLPGTAPKLLIHSNSHRPSGVPDRFSGSKSGTSASLAITGLQAEDEADYYCQSWDYESERVVFGGGTKLTVLG
notes: as for B4
B13: MOR021462 (antibody, V domains shown)
VH: QVQLLESGGGLVQPGGSLRLSCAASGFTFSDYALHWVRQAPGKGLEWVSGISYQGGFIFYADSVKGRFTISRDNSKNTLYLQMNSLRAEDTAVYYCARSPGLTSYHDSWGQGTLVTVSS
VL: DIVLTQPPSVSGAPGQRVTISCSGSSSNIGSNYVSWYQQLPGTAPKLLIHSNSHRPSGVPDRFSGSKSGTSASLAITGLQAEDEADYYCQSWDYESERVVFGGGTKLTVLG
notes: as for B4
B14: MOR021434 (antibody, V domains shown)
VH: QVQLVQSGAEVKKPGSSVKVSCKASGGTFSDYAISWVRQAPGQGLEWMGGIVPILGAANYAQKFQGRVTITADESTSTAYMELSSLRSEDTAVYYCARDSSTSYYYYFDYWGQGTLVTVSS
VL: DIQMTQSPSSLSASVGDRVTITCRASQDINSWLAWYQQKPGKAPKLLIYQASNLQSGVPSRFSGSGSGTDFTLTISSLQPEDFATYYCQQIDHTPFTFGQGTKVEIKR
notes: IgG (human IgG1f LALA); parent MOR20159 with the printed HCDR2 stretch exchanged
B15: MOR021440 (antibody, V domains shown)
VH: QVQLVQSGAEVKKPGSSVKVSCKASGGTFSDYAISWVRQAPGQGLEWMGGIVPIVGTANYAQKFQGRVTITADESTSTAYMELSSLRSEDTAVYYCARDSSTSYYYYFDYWGQGTLVTVSS
VL: DIQMTQSPSSLSASVGDRVTITCRASQDINSWLAWYQQKPGKAPKLLIYQASNLQSGVPSRFSGSGSGTDFTLTISSLQPEDFATYYCQQMQESLLTFGQGTKVEIKR
notes: IgG (human IgG1f LALA); parent MOR20159 with the printed LCDR3 stretch exchanged
B16: MOR021437 (antibody, V domains shown)
VH: QVQLVQSGAEVKKPGSSVKVSCKASGGTFSDYAISWVRQAPGQGLEWMGGIVPIVGTANYAQKFQGRVTITADESTSTAYMELSSLRSEDTAVYYCARDSSTSYYYYFDYWGQGTLVTVSS
VL: DIQMTQSPSSLSASVGDRVTITCRASQDINSWLAWYQQKPGKAPKLLIYQASNLQSGVPSRFSGSGSGTDFTLTISSLQPEDFATYYCQQMKISLITFGQGTKVEIKR
notes: as for B15
B17: MOR021436 (antibody, V domains shown)
VH: QVQLVQSGAEVKKPGSSVKVSCKASGGTFSDYAISWVRQAPGQGLEWMGGIVPIVGTANYAQKFQGRVTITADESTSTAYMELSSLRSEDTAVYYCARDSSTSYYYYFDYWGQGTLVTVSS
VL: DIQMTQSPSSLSASVGDRVTITCRASQDINSWLAWYQQKPGKAPKLLIYQASNLQSGVPSRFSGSGSGTDFTLTISSLQPEDFATYYCQQMQTSLITFGQGTKVEIKR
notes: as for B15
B18: MOR021438 (antibody, V domains shown)
VH: QVQLVQSGAEVKKPGSSVKVSCKASGGTFSDYAISWVRQAPGQGLEWMGGIVPIVGTANYAQKFQGRVTITADESTSTAYMELSSLRSEDTAVYYCARDSSTSYYYYFDYWGQGTLVTVSS
VL: DIQMTQSPSSLSASVGDRVTITCRASQDINSWLAWYQQKPGKAPKLLIYQASNLQSGVPSRFSGSGSGTDFTLTISSLQPEDFATYYCQQMHRHPITFGQGTKVEIKR
notes: as for B15
B19: MOR021439 (antibody, V domains shown)
VH: QVQLVQSGAEVKKPGSSVKVSCKASGGTFSDYAISWVRQAPGQGLEWMGGIVPIVGTANYAQKFQGRVTITADESTSTAYMELSSLRSEDTAVYYCARDSSTSYYYYFDYWGQGTLVTVSS
VL: DIQMTQSPSSLSASVGDRVTITCRASQDINSWLAWYQQKPGKAPKLLIYQASNLQSGVPSRFSGSGSGTDFTLTISSLQPEDFATYYCQQMHRFPMTFGQGTKVEIKR
notes: as for B15

Experimental findings from patent publication US20170260272A1 (Novartis, published 2017) are described below.

For this experiment, the target named is APP-Avi-soluble human LOX-1(61-273) (human, UniProt P78380 61-273). Put plainly: SET, IgG vs soluble human LOX-1. How it is done: Affinity determination for anti-LOX-1 IgGs using Solution Equilibrium Titration (SET) was basically performed as described in the literature (Friguet et al., 1985 J Immunol Methods 77: 305-319). The assays were performed in a 96-well polypropylene plate (Thermo Scientific, Catalog no. AB-1127) using a constant concentration of LOX-1 antibody mixed with different concentrations of non-biotinylated human or cynomolgus monkey LOX-1 protein and incubated at 22° C. for 14 hours with constant shaking (300 rpm).
On a pre-blocked MSD plate (Meso Scale Discovery, catalog no. L21SA) biotinylated human or cynomolgus monkey soluble LOX-1 protein was immobilized and washed afterwards. The equilibrium binding reactions were then applied to the MSD plate with immobilized LOX-1 and incubated for 30 min. The unbound material was removed by washing the plate, and the captured antibody was detected by adding Sulfo-tagged goat anti-human IgG (Meso Scale Discovery, catalog no. R3AJ-1). After incubation and washing 1×MSD read buffer T(Meso Scale Discovery, catalog no. R92TC-2) was added and the plate was developed using a Sector Imager 6000 (Meso Scale Discovery). The data were transferred to Excel for analysis and plotted using GraphPad Prism v5. The KD values were determined by fitting the data to the following equation: […]
On to B1, for which the Kd is 0.7 pM.
In the case of B2 it was 1 pM; in that of B3, 2 pM.
Regarding B4, the Kd is 0.6 pM.
As to B5, the Kd was 0.9 pM.
B6 yielded a Kd of 0.5 pM.
For the molecule B7, the Kd is 0.4 pM.
Molecule B8 showed a Kd of 0.2 pM.
On to B9, for which the Kd was determined as 1.3 pM.
For B10, the Kd was 0.6 pM.
Take B11: the Kd is 1 pM.
The figure for B12 is 1.6 pM.
In the case of B13 it was 0.9 pM; in that of B14, 7 pM; in that of B15, 6 pM.
For the molecule B16, the Kd is 4 pM.
As to B17, the Kd was 4 pM.
In the case of B18 it was 2 pM; in that of B19, 3 pM.
